Data from the DeepSol protein solubility set.

assay: soluble on expression in E. coli; label from the status in PepcDB or PDB records

| Sequence | soluble on expression in E. coli |
| --- | --- |
| MAHHHHHHMEIADRPLSEIIKEQKIDKELRRRHRGNQSGGNSDKKSVNRQGSSSQRQRNNNNNNTSGSRSRGSGNRSGGNKPESGRRRFRTDGGRRRGGNAVSAGSGSFGASRRRLADRADRRRRGALGGDNGNDGFGRGRDRDNNDRRGVKSAPRRRRISGAERNERNRNRDRRSALSRSRFDRDY | soluble |
| MAHHHHHHMEPDDGVASWMELREEGNKAFKSEAYANAVKLYSEAIKLNSKEAALFSNRSAAYIKMKEYQKAVLDAEAAIANDKTFVKGYSRLHNALCHLGRFREATQKLKEALVVLEACGASPEDKKQIQELHRTAEEGQRGFEAGQRLLEERNFLAAERELVKAAQLFPDCAIVGIMLGESQASLYPERVIRSLTALSSAHADDTYYLYVRALASYYSGQSGLNNAQSILRHTIELDPDNRKATELLKKIRAVESQKTEGNAAFKEKRFTAAVNCYKAAIEVDPSNIRMTAVLRGNQAAAKMELKEYSSALLDCDFAIKNGAESAKLYARRSRIHEALENYDDALRDIQRAAEMDPSYNGEAQQMKISAKRAKRKDYYKILGLPQGESDDSSIKRAYKKGCLQWHPDKWAHATEEEKAHAEKMFKEVGEAFSILSDPQKKRLYDSGQLDDASSPGGTSDFPARQADIFQMMNMMFQGGCGEGGMPSGFSFTVDPRSRRQKQTFHYR | soluble |
| MAHHHHHHMEQRELEKLFAPYGQILSAAVMRNIHTGNSLGTAFVRYASTEEAMSAIKGMSGKRIGGRAIAVQWAKKQHDYAPVGEARKKISKLFVRNIPLDINTVVLEDMFSMYGPVKSVSIHKDTAPDCDKNFERHIAFITFLADGAAERAAEAVHNTRPFPSCGKVPLMVKLAEDAPQRIHHGTGSKNSANALRTKQQLQGDMSAMSSGQEQFFDAPAVQQCFPTGTGTGAMVVAPTSYFSLLASGGLILPGSLPGAVMGSEAPYPWRTRVTWPQGTGVPFPFYNGGAAATAANPLAPSNACATPPSGSPVSCMNNGGFTSFPMYTTPFCPSTSPGLSGTQADSVAGSPLILPSSLHQ | not soluble |
| MAHHHHHHMEVGQRCRLLVADCTYTHATNSSDDIHGNGFTVTGVVVGVRPHAEEPWRRLYYVHCTRIEFGTELARQRRKAAAPSWSGAPLSTIGSGTIHSCNELRAAGGSFVSNGGYHYRYDGWYDAFALTPLSADVALANNTAAMASAGSSPPEPPATVSEPRDDEGAASASAVSHLPGQHRDAPEEWVAAMERDTAVCEVVYLCYAFQPWFSAPYSALQYLALPEDDVCHSVYVCHRCLSPFFTREQYYVHLAGEYCRLRTPPGRLIYHDEDAGYKAFLVDGAKNLHYGRCLSLLSKQLIESKVLSNDVDLYEYVVVTIPRASLPYMPAALPSCTSAEQCGVANLVALSREGFRQAASDFDAEDWDGDAVMGYFSRLKHHPDHTLSCIVTLPMFQRTRVATFLLDVAYWMTRQRQRLCGCGFCGRSGGAISRPFSPHGQSLLLSYWRRALLRSLAEVAPLHRRASRTAQPELRFTLAELRALMDIPIHTNDMETLLLHSEFAFYQPAAANAAAARYSDDDDSASPPTSPTSARRRQRHERGSTSTSLKDSQASSGSKLSSSSAGGSAGNGGSSTSGARYTGTLVLEAALLEAAAELHTKTPRSCVMFDKRWLVKDGRGAYAYDTPYYHH | not soluble |
| MAHHHHHHMFQNIQTIILDVNDGEMRAGYSGECSPRYNSNLILGLPVGHGATLKHTIFPLLPEIKRDNVELIYGMKYIYDDNNSSKYEINFDVMEKLLEDISGSKALDDNFQDHPILLTEPNKTDRKYREKFTEMMFETYNVYQLFLSRRSVLSCYGCARTSGLVLDVERNCTNLCGIQEGYIFQKHIEEVPIGGDLIDRIYLAYLENVKNIKIYPYFTIEKGQSAEKETDEIRILKCPLVTKPYYLWGSLHVASHLKENLGNECHPLGDKMKKNENKNESNTSYKLPDGSIIDQTTCESLKLIFPYIFFKKKYNQNSVTKLAGITTLQNMDFNSFYDSLKTLKLPVLYKHNYRINASSSVLERVPDNPADKNSNICNSDQIDTYFEIFDGLQDFIKKGILSFISANMTLDEVLNFLIVTGESTMFHNFIGILKSYLPFIDTIKEKSTQLIYSKGADRKCNCFIGASILSSLGTFPQFCMTKSEYEEYGVKNIVDKKCV | not soluble |
| MAHHHHHHMGGFGSKNMEYYNYASMKLLERDKYTNEKEEEEDDQYCKETDIREAVKKAREIRNCNYKESMDLYIKALKMLKKLKENNSRIYRNVLEFEIRPQEIASSAPLNTSLEKNIHMKKEGETNYTCAPPNDNQAISLNNKIASLYNEIADLCCIHDFIEKSLFYYDKACSYNPSKIDYIYKKGVLFQQMNDTERAINTFKIILSAEPNHIPTLFSLGNLYRYIDNHIALSYFEAILKIEPNNTEVLSLIASCYDNLGKLNEAISYQNKAVQIDPDNFNHKKFAQRLIEMKSQN | soluble |
